We go through 1 molecule from patent publication US7943358B2, “Polymerase enhancing factor (PEF) extracts, PEF protein complexes, isolated PEF protein, and methods for purifying and identifying” (Agilent Technologies, Inc., priority 1997, dated 2011).

Holding throughout (assay type): biochemical
Data set [1] addresses T1, cloned Pfu DNA polymerase (Pyrococcus furiosus, UniProt P61875).
T1 sequence (P61875 1-775): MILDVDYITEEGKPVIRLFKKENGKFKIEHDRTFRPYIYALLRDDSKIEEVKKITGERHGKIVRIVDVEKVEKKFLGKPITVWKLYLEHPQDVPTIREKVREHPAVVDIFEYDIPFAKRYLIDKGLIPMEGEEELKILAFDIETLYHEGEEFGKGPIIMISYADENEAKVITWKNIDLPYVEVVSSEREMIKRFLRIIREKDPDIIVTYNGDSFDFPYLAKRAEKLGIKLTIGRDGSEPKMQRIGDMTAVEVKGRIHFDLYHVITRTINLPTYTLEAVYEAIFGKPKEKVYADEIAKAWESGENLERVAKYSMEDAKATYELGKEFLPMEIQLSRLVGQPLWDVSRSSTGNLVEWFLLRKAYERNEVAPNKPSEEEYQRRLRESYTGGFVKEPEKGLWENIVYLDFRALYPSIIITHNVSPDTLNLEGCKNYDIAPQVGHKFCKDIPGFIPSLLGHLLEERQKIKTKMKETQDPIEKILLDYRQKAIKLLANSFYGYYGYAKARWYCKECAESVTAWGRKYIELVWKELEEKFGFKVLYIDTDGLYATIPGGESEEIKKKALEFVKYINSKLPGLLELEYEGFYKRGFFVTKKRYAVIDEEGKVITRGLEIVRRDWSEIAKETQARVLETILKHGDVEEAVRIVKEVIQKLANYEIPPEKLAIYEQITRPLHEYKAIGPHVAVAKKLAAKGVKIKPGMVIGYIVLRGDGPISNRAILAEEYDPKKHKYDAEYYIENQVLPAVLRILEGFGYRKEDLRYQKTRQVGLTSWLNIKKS
Description: 6.2 kb primer-template PCR enhancing assay. On the procedure:
One embodiment of an assay used to screen for PEFs, in this case from Pyrococcus furiosus, involved amplifying a 6.2 kb target from transgenic mouse DNA (6.2 kb primer-template assay). A master PCR cocktail was prepared consisting of: 200 μM each dNTP, 2 μg/ml primer F432-21 (5′-CTA-TTG-AGT-ACG-AAC-GCC-ATC) (SEQ ID NO.: 62), 2 μg/ml primer R6656-20 (GTC-ACG-CTT-GCT-CCA-CTC-CG) (SEQ ID NO: 63), 2.5 μg/ml λAA742 DNA (transgenic mouse DNA having 40 copies of a lambda phage DNA shuttle vector), 1× cloned Pfu DNA polymerase PCR buffer (10 mM KCl, 10 mM (NH4)2SO4, 20 mM Tris-HCl (pH 8.8), 2 mM MgSO4, 0.1% (v/v) Triton X-100, and 100 μg/ml BSA), and 25 U/ml cloned Pfu DNA polymerase. Samples were diluted in 1× cloned Pfu DNA polymerase PCR buffer, and 1 μl of each diluted sample was added to 24 μl of the PCR cocktail. PCR amplifications were conducted on the RoboCycler 96 Temperature Cycler (Stratagene), using the following conditions: 96° C. for 45 s (1 cycle)/96° C. for 45 s; 60° C. for 45 s; 72° C. for 14 min. (35 cycles)/72° C. for 10 min. (1 cycle). PCR products (10 μl/lane) are run out on 1% agarose gels and PCR product bands visualized by ethidium bromide staining. […] When PCR enhancement is due to the presence of PEFs, rather than contaminating endogenous DNA polymerase activity, amplifications performed in the absence of […] yield no PCR product. Moreover, PCR amplifications performed in the absence of exogenous DNA template should yield no PCR product when the PEF sample lacks contaminating target DNA.

A short description of data set [2]: Reverse phase HPLC analysis of dCTP conversion. Here is the method: (§1) The similarity of P45 to dCTP deaminases prompted us to test whether dCTP or other nucleotide triphosphates were substrates of PEF/P45. PEF was incubated with dCTP or dUTP and the reaction products were separated by reverse phase HPLC. Reaction mixtures (50 μl) containing 1× cloned Pfu polymerase buffer, 10 mM dCTP or dUTP, and 700 ng PEF (or 5 μl of cloned p45 (˜100 ng) or nothing (neg. control)) were incubated at 72° C. for 1 hour. The samples were injected on a […] Waters Delta-pak C-18 column (300 angstrom/15 μm), equilibrated in 50 mM triethylammonium acetate, pH (7.0) (A). Products were eluted with acetonitrile (B) at 2 ml/min. using the following gradient: 0% B for 5 minutes, 0-10% B over 20 minutes. Absorbence of the eluate was monitored with a photodiode array detector, and peak areas were integrated at 260 nm.

Data set [3] is described as follows: Reverse phase HPLC analysis, reactivity with other nucleotides. Here is the method:
as §1
In addition to dUTP, dCTP was also found to serve as a substrate for PEF (FIG. 17). The product of the PEF+dCTP reaction appeared to be dCMP, based upon its retention time and absorbence maxima. Although PEF utilizes dCTP, dUTP is the preferred substrate of PEF/P45. In the example shown, only 16.6% of the dCTP was converted in 1 hour under the same conditions which converted 100% dUTP (FIG. 17, panel B). […] No reactivity with PEF was detected for the following nucleotides: dGTP, dATP, dTTP, dCMP, dUMP, and rUTP under the conditions used.

A short description of data set [4]: Pi detection after reaction with dUTP (method of Heinonen and Lahti). The note with it: 900 or 1800 ng PEF, 5 mM dUTP, 1 hour at 72° C. Here is the method: We tested whether inorganic pyrophosphate (PPi) or inorganic phosphate (Pi) was generated during the PEF-catalyzed conversion of dUTP to dUMP (FIG. 16). To assess whether Pi was produced, 900 or 1800 ng of PEF was incubated in the presence of 5 mM dUTP in 1× cloned Pfu polymerase buffer for 1 hour at 72° C. The reaction mixture was subsequently analyzed for the presence of Pi using the method of Heinonen and Lahti (Heinonen; J. K. and Lahti, R. J. (1981) Anal. Biochem. 113: 313-317). […] One hundred percent (100%) conversion corresponds to the production of 500 nmol of Pi, if Pi is a product of the reaction. […] The assay for Pi was sensitive enough to detect as little as about 50 nmoles of Pi.

Data set [5] in a line: PCR cycling of dCTP in the presence of PEF or Pfu DNA polymerase, HPLC. The note with it: 10 mM dCTP, 0.5 ng PEF/μl.
The next data set has as its target T2, Pfu DNA polymerase (Pyrococcus furiosus, UniProt P61875).
T2 sequence (P61875 1-775): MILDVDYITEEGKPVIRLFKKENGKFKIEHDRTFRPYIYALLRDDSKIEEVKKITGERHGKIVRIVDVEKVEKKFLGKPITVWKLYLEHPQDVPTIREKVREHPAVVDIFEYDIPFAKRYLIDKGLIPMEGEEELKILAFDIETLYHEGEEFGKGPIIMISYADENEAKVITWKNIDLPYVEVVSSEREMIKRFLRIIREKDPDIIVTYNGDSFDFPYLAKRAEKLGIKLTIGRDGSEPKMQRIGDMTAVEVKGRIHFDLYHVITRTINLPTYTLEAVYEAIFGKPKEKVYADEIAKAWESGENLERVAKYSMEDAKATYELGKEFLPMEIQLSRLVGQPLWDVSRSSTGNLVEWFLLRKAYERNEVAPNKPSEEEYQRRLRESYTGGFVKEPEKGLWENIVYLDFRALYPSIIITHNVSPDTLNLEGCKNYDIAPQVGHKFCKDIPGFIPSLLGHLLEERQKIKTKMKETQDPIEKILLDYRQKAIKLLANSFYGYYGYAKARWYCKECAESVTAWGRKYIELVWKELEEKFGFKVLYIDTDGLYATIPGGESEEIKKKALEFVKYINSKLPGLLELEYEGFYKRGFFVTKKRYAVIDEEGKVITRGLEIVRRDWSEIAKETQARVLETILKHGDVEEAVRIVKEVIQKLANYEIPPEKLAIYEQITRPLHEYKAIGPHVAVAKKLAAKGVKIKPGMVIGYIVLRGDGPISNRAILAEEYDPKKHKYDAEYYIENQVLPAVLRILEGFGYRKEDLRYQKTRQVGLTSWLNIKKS
Kind of data set: 0.9 kb α1-antitrypsin PCR with unrelated dU-containing or control oligonucleotide. The note with it: 0.8 pmole of dU containing primer; 7 ng PEF.

Bounds are passed on as bounds.

B1: PEF: polymerase enhancing factor complex purified from Pyrococcus furiosus; predominant components P50 and P45 (protein)
chain 1: MLHHVKLIYATKSRKLVGKKIVXXXPGSIAALDVKACEGLIRHGAEVHAVMSEAATKIIHPYAWNLPTGNPVITEITGFIEHVELAGEHENKADLILVCPATANTISKIACGIDDTPVTTVVTTAFPHIPIMIAPAMHETMYRHPIVRENIERLKKLGVEFIGPRIEEGRAKVASIDEIVYRVIKKLHKKTLEGKRVLVTAGATREYIDPIRFITNASSGKMGVALAEEADFRGAVTLIRTKGSVKAFRIRKIKLKVETVEEMLSAIENELRSKKYDVVIMAAAVSDFRPKIKAEGKIKSGRSITIELVPXNPKIIDRIKEIQPNVFLVGFKAETSKEKLIEEGKRQIERAKADLVVGNTLEAFGSEENQVVLIGRDFTKELPKMKKRELAERIWDEIEKXLS
chain 2: MLLPDWKIRKEILIEPFSEESLQPAGYDLRVGREAFVKGKLIDVEKEGKVVIPPREYALILTLERIKLPDDVMGDMKIRSSLAREGVIGSFAWVDPGWDGNLTLMLYNASNEPVELRYGERFVQIAFIRLEGPARNPYRGNYQGSTRLAFSKRKKL
modifications: not fully specified; X: residue not identified in the source
notes: polymerase enhancing factor complex purified from Pyrococcus furiosus; predominant components P50 and P45
Consider B1, for which the “excess PEF giving lower PCR product yield” value in data set [1] is recorded as no less than 900 ng/100 μl. For the same molecule, the “PEF concentration range enhancing performance of Pfu DNA polymerase in PCR” value in data set [1] (10,000-fold range) is on record as 0.09-900 ng/100 μl. The “very low PEF concentration giving lower PCR product yield” value in data set [1] (listed as substantially homogeneous PEF) is given as less than 9 pg/100 μl. Besides, the “deamination of dCTP” value in data set [2] was “No deamination”. In data set [2] (1 hour, 72° C., 700 ng PEF), this molecule came in with a dCTP converted of 16.6%. In addition, the “reactivity with dGTP, dATP, dTTP, dCMP, dUMP, rUTP” value in data set [3] was “No reactivity”. The “Pi formed during reaction with dUTP” value in data set [4] is recorded as “no Pi was detected”. For the same molecule, in data set [5], the “dCDP after PCR cycling in presence of PEF” value came to 19%, the “dCMP after PCR cycling in presence of PEF” value is on record as 8%, the “dCTP after PCR cycling in presence of PEF” value came to 73% and the “dUTP after PCR cycling in presence of PEF” value is “no detectable dUTP”. Moreover, in the data set with Pfu DNA polymerase, the “amplification in reactions containing dU oligo with PEF” value is reported as “a small amount of amplification product is observed”.
